Measurements reported in the nanobody polyreactivity screen of Harvey et al. (2022).

Test: yeast display, Sf9 membrane polyspecificity reagent, FACS + sequencing; frameworks hold sequencing errors
Method in brief: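 Nanobodies came from a synthetic yeast display library in Saccharomyces cerevisiae BJ5465, induced with galactose for 36–48 hours and stained for 1 hour at 4 °C with 10% biotinylated, detergent-solubilized Sf9 membrane reagent. Cells were enriched on streptavidin microbeads and then FACS-sorted, with low and high (top ~1%) gates set on anti-HA fluorescence for expression and streptavidin fluorescence for reagent binding. Each polyreactivity label reflects the gate a clone came from. Genes were amplified by colony PCR, sequenced by MiSeq 2 × 250 and filtered by CDR length.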
In the case of “QVQLVESGGGLVQAGGSLRLSCAASGRIFVSNVMGWYRQAPGKERELVATITWSDGSTYYADSVKGRFTISRDNAKNTVYLQMNSLKPEDTAVYYCNVDQYTYVDLYWEYYFWGQGTQVTVSS”, the “polyreactivity (PSR sort gate)” value is reported as “low polyreactivity”. With “QVQLVESGGGLVQAGGSLRLSCAASGRIFVTNAMGGYRQAPGKEREFVAGISFSGDGRTYYADSVKGRFTISRDNAKNTVYLQMNSLKPEDSAVYYCAAPHRSRTHELDYWGQGTQVTVSS” the “polyreactivity (PSR sort gate)” value was “low polyreactivity”. With “QVQLVESGGGLVQAGGSLRLSCAASGRIFVTYVMGWYRQAPGKERELVAAISRRGGTTYYADSVKGRFTISRDNAKNTVYLQMNSLKPEDTAVYYCNVARDYAVESGYWGQGTQVTVSS” the “polyreactivity (PSR sort gate)” value was “high polyreactivity”. For “QVQLVESGGGLVQAGGSLRLSCAASGRIFVVNAMGWYRQAPGKESELVAAITRRGGSTYADSVKGRFTISRDNAKNTLYIQMTSLKPEDTAVYYCNAESDFGIFRYKYDYWGQCTQVTVSS”, the “polyreactivity (PSR sort gate)” value was “high polyreactivity”. For “QVQLVESGGGLVQAGGSLRLSCAASGRIFVYNAMGWYRQAPGKERELVAAITRGCSTYYADSVKGRFTISRDNAKNTVYLQMNSLKPEDTAVYYCASDYQRNDFRWYDYWGQGTQVTVSS”, the “polyreactivity (PSR sort gate)” value was “low polyreactivity”. In the case of “QVQLVESGGGLVQAGGSLRLSCAASGRIFVYNAMGWYRQAPGKERELVATITSGGSTYYADSVKGRFTISRDNAKNTVYLQMNSLKPEDTAVYYCAARRWYVHYFAYGYWGQRTQVTVSS”, the “polyreactivity (PSR sort gate)” value is reported as “low polyreactivity”. In the case of “QVQLVESGGGLVQAGGSLRLSCAASGRIFVYNAMGWYRQAPGKERQLVAAIRNDGSTNYADSVKGRFTISRDNAKNTVYLLMNSLKPEDTAVYYCAKSVTGWRGLWYTPRNYYWGQGTQVTVSS”, the “polyreactivity (PSR sort gate)” value is reported as “high polyreactivity”. For “QVQLVESGGGLVQAGGSLRLSCAASGRIFVYNVMGRYRQAPGKERELVAAISWGTGSTYADSVKGRFTISRDNAKNTVYLQMNSLKPEDTAVYYCAADSFIPPYDHWGQGTQVTVSS”, the “polyreactivity (PSR sort gate)” value was “low polyreactivity”. For “QVQLVESGGGLVQAGGSLRLSCAASGRIFVYNVMGWYRQAPGKERELVAAISWGTGSTYADSVKGRFTISRDNAKNSVNLQMNSLKPDDTAVYYCAKESTVRRYDYWGLGTQVTVSS”, the “polyreactivity (PSR sort gate)” value was “low polyreactivity”. For “QVQLVESGGGLVQAGGSLRLSCAASGRIFVYYAMGWNRQAPGKERELVAAISSSGGSTYYADSVKGRFTISRDNAKNTVYLQMNSLKPEDTAVYYCNAVTSVQARPRNYYYWGQGTQVTVSS”, the “polyreactivity (PSR sort gate)” value was “high polyreactivity”. For “QVQLVESGGGLVQAGGSLRLSCAASGRIFVYYAMGWYRQAPGKEREFVAAITDSGGGTYYADSVKGRFTISRDNAKNTVYLQMNSLKPEDTAVYYCAKRFGQYRYPYDYWGQGTQVTVSS”, the “polyreactivity (PSR sort gate)” value was “high polyreactivity”. For “QVQLVESGGGLVQAGGSLRLSCAASGRIFVYYAMGWYRQAPGKERELVAAITYSVDSTYYADSVKGRFTISRDNAKNTVYLQMNSLKPEDTAVYYCATDVDLAYGYQYEYWGQGTQVTVSS”, the “polyreactivity (PSR sort gate)” value was “low polyreactivity”. In the case of “QVQLVESGGGLVQAGGSLRLSCAASGRIFVYYAMGWYRQAPGKERELVAAITYSVDSTYYADSVKGRFTISRDNAKNTVYLQMNSLKPEDTAVYYCATDVDWAYGYQYEYWGQGTQVTVSS”, the “polyreactivity (PSR sort gate)” value is reported as “low polyreactivity”. In the case of “QVQLVESGGGLVQAGGSLRLSCAASGRIFVYYVMGWYRQAPGKERELVASITFRGSRTYYADSVKGRFTISRDNAKNTVYLQMNSLKPEDTAVDYCNADVWASGSRGEGYWGQGTQVTVSS”, the “polyreactivity (PSR sort gate)” value is reported as “low polyreactivity”. For “QVQLVESGGGLVQAGGSLRLSCAASGRIFWANAMGWYRQAPGKERELVAAISYSGVSTYYADSVKGRFTISRDNAKNTVYLQMNSLKPEDTAVYFCAADRYRKYYYWGQGTQVTVSS”, the “polyreactivity (PSR sort gate)” value was “high polyreactivity”. With “QVQLVESGGGLVQAGGSLRLSCAASGRIFWANAMGWYRQATGKERELVAAITGSGRTYYADSVKGRFTISRDNAKNTVYLQMISLKREDTAVYYCAAVTYYELAQGYGYWGQGTQVTVSS” the “polyreactivity (PSR sort gate)” value was “high polyreactivity”. In the case of “QVQLVESGGGLVQAGGSLRLSCAASGRIFWAYTMGWYRQAPGKERELVAAITGSGGSTYYADSVKGRFTISRDNAKNTVYLQMNSLKPEDTAVYYCAADIGYIRLPRGREYDYWGQGTEVTVSS”, the “polyreactivity (PSR sort gate)” value is reported as “high polyreactivity”. In the case of “QVQLVESGGGLVQAGGSLRLSCAASGRIFWDNAMGWYRQAPGKERELVAAISDSVVITYYADSVKGRFTISRDNAKNTVYLQMNSLKPEDTAVYYCAADKRGTVYLSSFWMDYWGQGTQVTVSS”, the “polyreactivity (PSR sort gate)” value is reported as “low polyreactivity”. In the case of “QVQLVESGGGLVQAGGSLRLSCAASGRIFWDNDMGWYRQAPGKERELVAAISRRGGSTSYADSVKGRFTISRDNAKNTVYLQMYSLKPEDTAVYYCIVRTRWTRVRRYDYWGQGTQVTVSS”, the “polyreactivity (PSR sort gate)” value is reported as “high polyreactivity”. For “QVQLVESGGGLVQAGGSLRLSCAASGRIFWDYAMGWYRKAPGKERELVAVITFSGDSTYYADSVKGRFTISRDNAKNTVYLQMNSLKPEDTAVYYCAAARAIRQFWYVATFEYWGQGTQVTVSS”, the “polyreactivity (PSR sort gate)” value was “low polyreactivity”. In the case of “QVQLVESGGGLVQAGGSLRLSCAASGRIFWGYSMGWYRQAPGKERELVAAITSGGRTYYADSVKGRFTISRDNAKNTVYLQMNSLKPEDTAVYYCAAVYVPYYWLGRSRGLDYWGQGTQVTVSS”, the “polyreactivity (PSR sort gate)” value is reported as “high polyreactivity”. With “QVQLVESGGGLVQAGGSLRLSCAASGRIFWINDMGWSRQAPGKERELVAAIRSIGGSTYYADSVKGRFTISRDNGKNTVYLQMNSLKPEDTAVYYCAAKSSPKVRGRYYYWGQGTQVTVSS” the “polyreactivity (PSR sort gate)” value was “low polyreactivity”. With “QVQLVESGGGLVQAGGSLRLSCAASGRIFWNYAMGWYRQAPGKERELVAAITWSGGSTYADSVNGRFTISRDNAKYTVYLQMNSLKPEDTAEYYCAAAYASYKFDYWGQGTQVTVSS” the “polyreactivity (PSR sort gate)” value was “low polyreactivity”. For “QVQLVESGGGLVQAGGSLRLSCAASGRIFWNYAMGWYSQAPGKERELVASINWSGGSTYYADSVKGRFTISRDNAKNTVYLQMNSLKPEDTAVYYCNKDGRVYLDHDYWGQGTQVTVSS”, the “polyreactivity (PSR sort gate)” value was “low polyreactivity”. In the case of “QVQLVESGGGLVQAGGSLRLSCAASGRIFWPYAMGWYRQAPGKERELVAVITSGTTTYYADSVKGRFTISRDNAKNTVYLKMNSLKPEDTAVYYCNIFSRARRYFEYDYWGQGTQVTVSS”, the “polyreactivity (PSR sort gate)” value is reported as “low polyreactivity”. With “QVQLVESGGGLVQAGGSLRLSCAASGRIFWPYTMGGYRQAPGKETELVAVITYSGGSTYYADSVKGRFTISRDNAKNTVYLQMNSLIPEDTEVYYCNAGIRFYLHAHGYYWGQGTQVTVSS” the “polyreactivity (PSR sort gate)” value was “high polyreactivity”. With “QVQLVESGGGLVQAGGSLRLSCAASGRIFWRNAMGWYRQAPGKERELVAAISSGGSTYYADSVKGRFTISRDNAKNTVYFQMNSLKPEDTAVYYCAARSSWRGVRYDHFERDYWGQGTQVTVSS” the “polyreactivity (PSR sort gate)” value was “high polyreactivity”. For “QVQLVESGGGLVQAGGSLRLSCAASGRIFWRNAMVWYRQAPGKERELVAAISGSGGSTSYADSVKGRFTISRDNAKNTVYLQMNSLKPEDTAVYYCAAKYYYNWHRQGYDYWGQGTQVTVSS”, the “polyreactivity (PSR sort gate)” value was “high polyreactivity”. For “QVQLVESGGGLVQAGGSLRLSCAASGRIFWRYAMGWYRQAPGKERELVAAISSGGSTTYADSVKGRFTISRDNAKNTVYLQMNSLKPEDTAVYYCNARQYTRPYAFDYWGQGTQVTVSS”, the “polyreactivity (PSR sort gate)” value was “low polyreactivity”. With “QVQLVESGGGLVQAGGSLRLSCAASGRIFWRYAMGWYRQAPGKERELVAGISASGGSTFYADSVKGRFTISRDNAKNTVYLQMNSLKPEDTAVYYCAAVSRYIWYSARESYYWGQGTQVTVSS” the “polyreactivity (PSR sort gate)” value was “high polyreactivity”. With “QVQLVESGGGLVQAGGSLRLSCAASGRIFWSYAMGWYRQAPGKEREFVAVITWSGGSTYYADSVKGRFTISRDNAKNTVYLQMNSLKPEDTAVYYCADGQWWYQVRFDYWGQGTQVTVSS” the “polyreactivity (PSR sort gate)” value was “low polyreactivity”. In the case of “QVQLVESGGGLVQAGGSLRLSCAASGRIFWSYAMGWYRQAPGKERELVAAINSGGSTNYADSVKGRFTISRDNAKNTVYLQMNSLKPEDTAVYYCAAGFYYVYVWLGEYWVQGTQVTVSS”, the “polyreactivity (PSR sort gate)” value is reported as “low polyreactivity”. For “QVQLVESGGGLVQAGGSLRLSCAASGRIFWTNAMGWYRQAPGKERELVAAISYNGASTFYADSVKGRFTISRDNAKNTVYLQMNSLKPEDTAVYYCNAYSSRYRYNYWGQGTQVTVSS”, the “polyreactivity (PSR sort gate)” value was “high polyreactivity”. In the case of “QVQLVESGGGLVQAGGSLRLSCAASGRIFWTYAMGWYRQAPGKERELVAAINSSGGTTYYADSVKGRFTISRDNAKNTVYLQMNSLKPEDTAVYYCSVRGRYYYRRPQISYDYGGQGTQVTVSS”, the “polyreactivity (PSR sort gate)” value is reported as “low polyreactivity”. With “QVQLVESGGGLVQAGGSLRLSCAASGRIFWTYAMGWYRQAPGKERELVASITWSGGSTYYADSVKGRFTISRDNAKNTVYLQMNSLKPEDTAVYYCAADRHTYWYDYWGQGTQVTVSS” the “polyreactivity (PSR sort gate)” value was “low polyreactivity”. For “QVQLVESGGGLVQAGGSLRLSCAASGRIFWVNVMGWYRQGPGKERELVAAITRGASTYADSVKGRFTISRDNAKNTVYLQLNSLKPEDTAVYYCAADSKRRSIRYDYWGQGTQVTVSS”, the “polyreactivity (PSR sort gate)” value was “high polyreactivity”. In the case of “QVQLVESGGGLVQAGGSLRLSCAASGRIFWVYAMGWYRQAPGKERELVAAISLSGGRTYYADSVKGRFTISRDNAKNTVYLEMNSLKPEDTAVYYCNAVYPKRGGGRIVDYWGQGTQVTVSS”, the “polyreactivity (PSR sort gate)” value is reported as “high polyreactivity”. With “QVQLVESGGGLVQAGGSLRLSCAASGRIFWWYAMGWYRQAPGKERELVAVIDDSGGITYYADSVKGRFTISRDNAKNTVYLQRNSLKPEDTAVYYCANYYWGQGTQVTVSS” the “polyreactivity (PSR sort gate)” value was “low polyreactivity”. In the case of “QVQLVESGGGLVQAGGSLRLSCAASGRIFWWYTMGWSRQAPGKERELVAAISGSGGSTYYADSVKGRFTISRDNAKNTVYLQMNSLKPEDTAVYYCAAYHRRRATPIHSGEYGYWGQGTQVTVSS”, the “polyreactivity (PSR sort gate)” value is reported as “high polyreactivity”. For “QVQLVESGGGLVQAGGSLRLSCAASGRIFWYNAMGWYRQAPGKERELVAVITSGTSTYYADSVKGRFTISRDNAKNTVYLQMNSLKPEDTAVYYCAARYLSRYSERHYYYWGQGTQVTVSS”, the “polyreactivity (PSR sort gate)” value was “high polyreactivity”. For “QVQLVESGGGLVQAGGSLRLSCAASGRIFWYNAMGWYRQAPGKQRELVAAITSGGRTYYADSVKGRFTISRDNAKNTVYLQMNSLKPEDTAVYYCAATYPSYTYDYWGQGTQVTVSS”, the “polyreactivity (PSR sort gate)” value was “low polyreactivity”. In the case of “QVQLVESGGGLVQAGGSLRLSCAASGRIFWYNGKGWYRQAPGKERELVAAISYSGGSTNYADSVKGRFTISRDNAKNTVYLQMNSLKPEATAVYYCAAPVPTYHTAWRFFRPDYGYWGQGTQVTVSS”, the “polyreactivity (PSR sort gate)” value is reported as “high polyreactivity”. With “QVQLVESGGGLVQAGGSLRLSCAASGRIFWYNTMGWYRQAPGKERELVATITTGGRTNYADSVKGRFTISRDNAKNTVYLQMNSLKPEDTAVYYCNAVRGLWVTWRYYYWGQGTQVTVSS” the “polyreactivity (PSR sort gate)” value was “high polyreactivity”.
